Patent publication US20180193423A1 (LONGEVITY BIOTECH, published 2018)
Like-named read-outs stand apart in the source and are kept apart here. Primed or numbered codes have the meaning given here. Where no end group is shown, it is not given here. [ ]: non-standard residue; d: D form. APC″ = 3-aminopyrrolidine-4-carboxylic acid (cyclic β-amino acid); ACPC″ = 2-aminocyclopentanecarboxylic acid (x in the sequences); APC = 3-aminopyrrolidine-4-carboxylic acid; ACPC = 2-aminocyclopentanecarboxylic acid; β3hY = N[C@H](CC(=O)O)Cc1ccc(O)cc1; β3hR = N=C(N)NCCC[C@H](N)CC(=O)O; β3hT = C[C@@H](O)[C@H](N)CC(=O)O; β3hQ = NC(=O)CC[C@H](N)CC(=O)O; β3hN = NC(=O)C[C@H](N)CC(=O)O; β3hL = CC(C)C[C@H](N)CC(=O)O; β3hK = NCCCC[C@H](N)CC(=O)O; β3hV = CC(C)[C@H](N)CC(=O)O; Aib = CC(C)(N)C(=O)O; βAla = NCCC(=O)O

Columns and labels:
Experiment in all cases: cell-based or functional assay
[1] = biological target: T1, VPAC1 receptor (UniProt P32241 31-457, limits assumed)
T1 sequence (looked up): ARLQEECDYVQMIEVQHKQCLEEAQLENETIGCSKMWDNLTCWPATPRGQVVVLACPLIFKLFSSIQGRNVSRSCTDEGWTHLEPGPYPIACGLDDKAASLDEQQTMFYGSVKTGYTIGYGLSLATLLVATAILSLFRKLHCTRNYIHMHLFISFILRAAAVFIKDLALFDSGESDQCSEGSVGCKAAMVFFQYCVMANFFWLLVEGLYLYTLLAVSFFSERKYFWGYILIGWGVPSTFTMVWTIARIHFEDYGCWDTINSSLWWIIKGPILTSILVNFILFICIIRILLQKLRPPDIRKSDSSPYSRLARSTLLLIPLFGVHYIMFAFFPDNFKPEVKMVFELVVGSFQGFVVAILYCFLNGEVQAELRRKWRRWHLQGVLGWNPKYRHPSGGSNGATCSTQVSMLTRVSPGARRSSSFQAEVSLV

[2] = biological target: T2, VPAC2 receptor (UniProt P41587 24-438, limits assumed)
T2 sequence (looked up): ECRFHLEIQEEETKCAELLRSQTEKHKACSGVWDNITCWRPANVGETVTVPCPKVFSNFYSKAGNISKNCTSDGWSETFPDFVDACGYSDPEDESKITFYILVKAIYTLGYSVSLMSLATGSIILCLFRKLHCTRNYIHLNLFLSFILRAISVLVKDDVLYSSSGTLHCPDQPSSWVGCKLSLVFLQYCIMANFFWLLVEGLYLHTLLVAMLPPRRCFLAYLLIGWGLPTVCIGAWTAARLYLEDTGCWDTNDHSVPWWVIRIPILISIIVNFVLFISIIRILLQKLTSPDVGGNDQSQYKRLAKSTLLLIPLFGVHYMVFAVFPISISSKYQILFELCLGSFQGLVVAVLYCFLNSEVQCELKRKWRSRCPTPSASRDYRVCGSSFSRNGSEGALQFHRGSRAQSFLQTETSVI

[3] = biological target: T1, VPAC1 receptor; remark: listed apart in the source
[4] = biological target: T2, VPAC2 receptor; remark: listed apart in the source

## Ac-HSDAVFTENYTKLRKQLA[ACPC]KKY[ACPC]ND[β3hL]KKG[βAla]T (not fully specified (C-terminus); printed as Ac-HSDAVFTENYTKLRKQLAxKKYxNDlKKGgT) [LBT-V201]
[1]
  EC 50 vpac1 (Molar), cell-based cAMP assay: 9.09 nM
[2]
  EC50 vpac2 (Molar), cell-based cAMP assay: 104 nM

## Ac-H[Aib]DA[β3hV]FTENYTKLRKQLAA[APC]KY[ACPC]NDL[β3hK]KG[βAla]T (not fully specified (C-terminus); printed as Ac-HBDAvFTENYTKLRKQLAAzKYxNDLkKGgT) [LBT-V205]
[1]
  EC 50 vpac1 (Molar), cell-based cAMP assay: > 1000 nM
[2]
  EC50 vpac2 (Molar), cell-based cAMP assay: 0.816 nM

## Ac-H[Aib]DA[β3hV]FTE[β3hN]YTKLRKQLAA[APC]KY[ACPC]NDL[β3hK]KG[βAla]T (not fully specified (C-terminus); printed as Ac-HBDAvFTEnYTKLRKQLAAzKYxNDLkKGgT) [LBT-V206]
[1]
  EC 50 vpac1 (Molar), cell-based cAMP assay: > 1000 nM
[2]
  EC50 vpac2 (Molar), cell-based cAMP assay: 3.47 nM

## Ac-H[ACPC]DAVFTENYTKLRKQLAA[APC]KY[ACPC]NDL[β3hK]KG[βAla]T (not fully specified (C-terminus); printed as Ac-HxDAVFTENYTKLRKQLAAzKYxNDLkKGgT) [LBT-V207]
[1]
  EC 50 vpac1 (Molar), cell-based cAMP assay: > 1000 nM
[2]
  EC50 vpac2 (Molar), cell-based cAMP assay: 0.593 nM

## Ac-H[ACPC]DA[ACPC]FTENYTKLRKQLAA[APC]KY[ACPC]NDL[β3hK]KG[βAla]T (not fully specified (C-terminus); printed as Ac-HxDAxFTENYTKLRKQLAAzKYxNDLkKGgT) [LBT-V208]
[1]
  EC 50 vpac1 (Molar), cell-based cAMP assay: 133 nM
[2]
  EC50 vpac2 (Molar), cell-based cAMP assay: 0.646 nM

## Ac-H[ACPC]DA[ACPC]FTE[ACPC]YTKLRKQLAA[APC]KY[ACPC]NDL[β3hK]KG[βAla]T (not fully specified (C-terminus); printed as Ac-HxDAxFTExYTKLRKQLAAzKYxNDLkKGgT) [LBT-V209]
[1]
  EC 50 vpac1 (Molar), cell-based cAMP assay: > 1000 nM
[2]
  EC50 vpac2 (Molar), cell-based cAMP assay: 5.58 nM

## Ac-H[ACPC]DA[β3hV]FTENYTKLRKQLAA[APC]KY[ACPC]NDL[β3hK]KG[βAla]T (not fully specified (C-terminus); printed as Ac-HxDAvFTENYTKLRKQLAAzKYxNDLkKGgT) [LBT-V210]
[1]
  EC 50 vpac1 (Molar), cell-based cAMP assay: 1420 nM
[2]
  EC50 vpac2 (Molar), cell-based cAMP assay: 0.859 nM

## Ac-H[ACPC]DA[β3hV]FTENYTKLRKQ[β3hL]AA[APC]KY[ACPC]NDL[β3hK]KG[βAla]T (not fully specified (C-terminus); printed as Ac-HxDAvFTENYTKLRKQlAAzKYxNDLkKGgT) [LBT-V211]
[1]
  EC 50 vpac1 (Molar), cell-based cAMP assay: > 1000 nM
[2]
  EC50 vpac2 (Molar), cell-based cAMP assay: 1.26 nM

## Ac-H[ACPC]DA[β3hV]FTENYTKLRK[β3hQ]LAA[APC]KY[ACPC]NDL[β3hK]KG[βAla]T (not fully specified (C-terminus); printed as Ac-HxDAvFTENYTKLRKqLAAzKYxNDLkKGgT) [LBT-V212]
[1]
  EC 50 vpac1 (Molar), cell-based cAMP assay: 1530 nM
[2]
  EC50 vpac2 (Molar), cell-based cAMP assay: 3.52 nM

## Ac-H[ACPC]DA[β3hV]FTENYTKLR[β3hK]QLAA[APC]KY[ACPC]NDL[β3hK]KG[βAla]T (not fully specified (C-terminus); printed as Ac-HxDAvFTENYTKLRkQLAAzKYxNDLkKGgT) [LBT-V213]
[1]
  EC 50 vpac1 (Molar), cell-based cAMP assay: 293 nM
[2]
  EC50 vpac2 (Molar), cell-based cAMP assay: 1.27 nM

## Ac-H[ACPC″]DA[β3hV]FTENYTKL[β3hR]KQLAA[APC″]KY[ACPC″]NDL[β3hK]KG[βAla]T (not fully specified (C-terminus); printed as Ac-HxDAvFTENYTKLrKQLAAzKYxNDLkKGgT) [LBT-V214]
[1]
  EC 50 vpac1 (Molar), cell-based cAMP assay: > 1000 nM
[2]
  EC50 vpac2 (Molar), cell-based cAMP assay: 1.37 nM

## Ac-H[ACPC″]DA[β3hV]FTENYTK[β3hL]RKQLAA[APC″]KY[ACPC″]NDL[β3hK]KG[βAla]T (not fully specified (C-terminus); printed as Ac-HxDAvFTENYTKlRKQLAAzKYxNDLkKGgT) [LBT-V215]
[1]
  EC 50 vpac1 (Molar), cell-based cAMP assay: 1420 nM
[2]
  EC50 vpac2 (Molar), cell-based cAMP assay: 1.33 nM

## Ac-HSDAVFTENYTKLRKQLAA[APC]KY[ACPC]NDL[β3hK]KG[βAla]T (not fully specified (C-terminus); printed as Ac-HSDAVFTENYTKLRKQLAAzKYxNDLkKGgT) [LBT-V202]
[1]
  EC 50 vpac1 (Molar), cell-based cAMP assay: > 1000 nM
[2]
  EC50 vpac2 (Molar), cell-based cAMP assay: 0.963 nM

## Ac-H[ACPC″]DA[ACPC″]FTE[β3hN][β3hY]TKLRKQLAA[APC″]KY[ACPC″]NDL[β3hK]KG[βAla]T (not fully specified (C-terminus); printed as Ac-HxDAxFTEnyTKLRKQLAAzKYxNDLkKGgT) [LBT-V216]
[1]
  EC 50 vpac1 (Molar), cell-based cAMP assay: 932 nM
[2]
  EC50 vpac2 (Molar), cell-based cAMP assay: 95.6 nM

## Ac-H[ACPC″]DA[ACPC″]FTE[ACPC″][β3hY]TKLRKQ[β3hL]AA[APC″]KY[ACPC″]NDL[β3hK]KG[βAla]T (not fully specified (C-terminus); printed as Ac-HxDAxFTExyTKLRKQlAAzKYxNDLkKGgT) [LBT-V217]
[1]
  EC 50 vpac1 (Molar), cell-based cAMP assay: 785 nM
[2]
  EC50 vpac2 (Molar), cell-based cAMP assay: 1.17 nM

## Ac-H[ACPC″]DA[ACPC″]FTE[ACPC″][β3hY]TKLRK[β3hQ]LAA[APC″]KY[ACPC″]NDL[β3hK]KG[βAla]T (not fully specified (C-terminus); printed as Ac-HxDAxFTExyTKLRKqLAAzKYxNDLkKGgT) [LBT-V218]
[1]
  EC 50 vpac1 (Molar), cell-based cAMP assay: > 1000 nM
[2]
  EC50 vpac2 (Molar), cell-based cAMP assay: 1.02 nM

## Ac-H[ACPC″]DA[ACPC″]FTE[ACPC″][β3hY]TKLR[β3hK]QLAA[APC″]KY[ACPC″]NDL[β3hK]KG[βAla]T (not fully specified (C-terminus); printed as Ac-HxDAxFTExyTKLRkQLAAzKYxNDLkKGgT) [LBT-V219]
[1]
  EC 50 vpac1 (Molar), cell-based cAMP assay: 461 nM
[2]
  EC50 vpac2 (Molar), cell-based cAMP assay: > 1000 nM

## Ac-HSDAVFTENYTKLRKQ[ACPC″]AAK[APC″]YL[ACPC″]DLK[β3hK]GGT (not fully specified (C-terminus); printed as Ac-HSDAVFTENYTKLRKQxAAKzYLxDLKkGGT) [LBT-V220]
[1]
  EC 50 vpac1 (Molar), cell-based cAMP assay: 9.51 nM
[2]
  EC50 vpac2 (Molar), cell-based cAMP assay: 0.422 nM

## Ac-HSDAVFTDNYTRLRKQ[ACPC″]AAK[APC″]YL[ACPC″]SIK[β3hN]KRY (not fully specified (C-terminus); printed as Ac-HSDAVFTDNYTRLRKQxAAKzYLxSIKnKRY) [LBT-V221]
[1]
  EC 50 vpac1 (Molar), cell-based cAMP assay: 0.195 nM
[2]
  EC50 vpac2 (Molar), cell-based cAMP assay: 0.0784 nM

## H[ACPC]DAVFTDNY[β3hT]RLR[β3hK]QLA[β3hV]KKY[β3hL]NAI[β3hL]N (not fully specified (C-terminus); printed as HxDAVFTDNYtRLRkQLAvKKYlNAIlN) [LBT-V102]
[3]
  EC 50 vpac1 (Molar), cell-based cAMP assay: 5.66 nM
[4]
  EC50 vpac2 (Molar), cell-based cAMP assay: 4.9 µM

## Ac-HSDAVFTENYTKLRKQ[ACPC]AA[APC]KYL[ACPC]DL[β3hK]KGGT (not fully specified (C-terminus); printed as Ac-HSDAVFTENYTKLRKQxAAzKYLxDLkKGGT) [LBT-V203]
[1]
  EC 50 vpac1 (Molar), cell-based cAMP assay: 218 nM
[2]
  EC50 vpac2 (Molar), cell-based cAMP assay: 0.18 nM

## Ac-H[Aib]DAVFTENYTKLRKQLAA[APC]KY[ACPC]NDL[β3hK]KG[βAla]T (not fully specified (C-terminus); printed as Ac-HBDAVFTENYTKLRKQLAAzKYxNDLkKGgT) [LBT-V204]
[1]
  EC 50 vpac1 (Molar), cell-based cAMP assay: 516 nM
[2]
  EC50 vpac2 (Molar), cell-based cAMP assay: 0.529 nM
